Values quoted from earlier work as cited in publication PMC12172581.

Biological target: Nterm1 (UniProt position 672, SEVKMDAEFRH)
Test: potentiometry
Details: apo (metal-free) peptide

Amyloid-beta peptide (Abeta1-40, as tabulated) (Homo sapiens)
pKa: 8.0
